Assay in all cases: holdup assay
Design in all cases: key: below the threshold = too weak to quantify, mostly under pKd 3.1 to 4

Experiment [1] has as its target T1, APBA2_2, Q99767.
T1 sequence (Q99767 654-744, limits assumed, looked up): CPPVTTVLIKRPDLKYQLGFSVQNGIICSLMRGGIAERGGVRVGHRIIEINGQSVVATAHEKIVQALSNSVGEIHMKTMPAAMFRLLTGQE

Experiment [2] deals with T2, APBA3_1, O96018.
T2 sequence (O96018 389-490, limits assumed, looked up): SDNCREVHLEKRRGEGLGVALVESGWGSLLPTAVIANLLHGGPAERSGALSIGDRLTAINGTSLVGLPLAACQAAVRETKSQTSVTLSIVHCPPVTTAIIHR

The target of experiment [3] is T3, ARHGAP21, Q5T5U3.
T3 sequence (Q5T5U3 45-169, limits assumed, looked up): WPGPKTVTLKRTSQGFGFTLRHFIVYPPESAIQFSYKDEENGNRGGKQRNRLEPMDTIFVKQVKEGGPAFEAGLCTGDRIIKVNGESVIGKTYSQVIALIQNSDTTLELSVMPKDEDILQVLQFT

Experiment [4] has as its target DLG1_1, Q12959.
The target in experiment [5] is FRMPD3, Q5JV73.
Experiment [6] concerns the target GRID2IP_1, A4D2P6.
Experiment [7] concerns the target T4, GRIP1_3, Q9Y3R0.
T4 sequence (Q9Y3R0 247-346, limits assumed, looked up): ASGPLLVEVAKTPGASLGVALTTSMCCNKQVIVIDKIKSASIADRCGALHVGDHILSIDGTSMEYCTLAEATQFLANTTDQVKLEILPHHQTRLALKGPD

Experiment [8] has as its target GRIP2_4, Q9C0E4.
Experiment [9] addresses GRIP2_7, Q9C0E4.
Experiment [10] addresses HTRA1, Q92743.
The target of experiment [11] is IL16_1, Q14005.
The target of experiment [12] is T5, LIN7C, Q9NUP9.
T5 sequence (Q9NUP9 88-185, limits assumed, looked up): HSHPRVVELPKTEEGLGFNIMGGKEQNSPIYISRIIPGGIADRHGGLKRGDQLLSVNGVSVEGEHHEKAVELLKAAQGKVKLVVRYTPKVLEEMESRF

Experiment [13] addresses LNX1_1, Q8TBB1.
In experiment [14] the target is LNX1_2, Q8TBB1.
Experiment [15] addresses T6, LNX2_2, Q8N448.
T6 sequence (Q8N448 334-432, limits assumed, looked up): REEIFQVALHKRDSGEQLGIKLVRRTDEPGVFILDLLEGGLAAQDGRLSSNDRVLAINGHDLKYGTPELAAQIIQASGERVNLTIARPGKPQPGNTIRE

The target of experiment [16] is T7, LNX2_3, Q8N448.
T7 sequence (Q8N448 463-564, limits assumed, looked up): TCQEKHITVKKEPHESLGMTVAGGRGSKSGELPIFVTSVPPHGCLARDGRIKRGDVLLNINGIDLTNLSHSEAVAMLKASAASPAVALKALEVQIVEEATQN

Experiment [17] addresses T8, MPDZ_12, O75970.
T8 sequence (O75970 1857-1958, limits assumed, looked up): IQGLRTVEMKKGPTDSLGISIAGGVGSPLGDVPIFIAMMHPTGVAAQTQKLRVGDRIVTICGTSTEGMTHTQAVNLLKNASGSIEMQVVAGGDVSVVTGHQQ

The target in experiment [18] is PARD3_3, Q8TEW0.
Experiment [19] concerns the target T9, PCLO, Q9Y6V0.
T9 sequence (Q9Y6V0 4491-4600, limits assumed, looked up): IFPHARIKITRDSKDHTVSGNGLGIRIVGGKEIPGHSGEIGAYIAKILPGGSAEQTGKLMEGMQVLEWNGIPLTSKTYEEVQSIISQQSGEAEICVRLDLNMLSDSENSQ

Experiment [20] deals with T10, PTPN13_1, Q12923.
T10 sequence (Q12923 1088-1188, limits assumed, looked up): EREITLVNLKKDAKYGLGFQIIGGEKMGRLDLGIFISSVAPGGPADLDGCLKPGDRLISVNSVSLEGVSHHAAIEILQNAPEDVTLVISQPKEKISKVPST

For experiment [21], the target named is PTPN3, P26045.
Experiment [22] deals with T11, SNTG1, Q9NSN8.
T11 sequence (Q9NSN8 52-150, limits assumed, looked up): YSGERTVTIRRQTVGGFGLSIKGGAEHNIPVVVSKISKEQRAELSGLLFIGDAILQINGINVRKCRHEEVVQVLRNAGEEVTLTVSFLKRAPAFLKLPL

Experiment [23] has as its target T12, SYNJ2BP, P57105.
T12 sequence (P57105 8-110, limits assumed, looked up): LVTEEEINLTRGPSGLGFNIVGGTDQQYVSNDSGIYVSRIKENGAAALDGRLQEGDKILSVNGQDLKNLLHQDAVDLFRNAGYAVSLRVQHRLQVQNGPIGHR

Experiment [24] concerns the target T13, TJP3_3, O95049.
T13 sequence (O95049 375-456, limits assumed, looked up): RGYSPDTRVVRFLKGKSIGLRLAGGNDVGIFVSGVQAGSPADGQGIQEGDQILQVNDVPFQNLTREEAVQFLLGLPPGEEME

Where [25] appears, read: plain residues with an end cap or a label only (N-terminal biotin on a linker: ttds).
[26] abbreviates: plain residues with an end cap or a label only (N-terminal biotin on a linker: ahx).

GRIP2_7, Q9C0E4, sequence (Q9C0E4 934-1023): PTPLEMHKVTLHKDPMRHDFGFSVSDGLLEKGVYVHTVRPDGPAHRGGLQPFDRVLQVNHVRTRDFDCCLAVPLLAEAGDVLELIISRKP
FRMPD3, Q5JV73, sequence (Q5JV73 12-100): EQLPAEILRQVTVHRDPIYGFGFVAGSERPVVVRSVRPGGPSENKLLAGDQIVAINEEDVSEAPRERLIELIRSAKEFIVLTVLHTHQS
LNX1_2, Q8TBB1, sequence (Q8TBB1 371-470): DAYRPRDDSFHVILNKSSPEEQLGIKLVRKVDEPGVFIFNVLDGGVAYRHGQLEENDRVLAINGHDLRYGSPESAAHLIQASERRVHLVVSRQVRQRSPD
IL16_1, Q14005, sequence (Q14005 210-306): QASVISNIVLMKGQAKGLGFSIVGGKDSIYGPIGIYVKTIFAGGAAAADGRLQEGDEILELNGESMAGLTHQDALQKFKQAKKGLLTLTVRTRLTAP
GRID2IP_1, A4D2P6, sequence (A4D2P6 1-87): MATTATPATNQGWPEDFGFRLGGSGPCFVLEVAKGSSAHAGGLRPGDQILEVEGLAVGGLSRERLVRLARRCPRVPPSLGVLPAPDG
GRIP2_4, Q9C0E4, sequence (Q9C0E4 446-548): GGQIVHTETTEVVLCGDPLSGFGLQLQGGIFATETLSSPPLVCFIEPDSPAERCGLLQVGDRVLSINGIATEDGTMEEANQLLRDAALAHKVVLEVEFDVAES
PARD3_3, Q8TEW0, sequence (Q8TEW0 582-685): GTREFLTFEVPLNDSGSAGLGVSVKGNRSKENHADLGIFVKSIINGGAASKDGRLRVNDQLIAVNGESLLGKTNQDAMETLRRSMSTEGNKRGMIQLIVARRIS
LNX1_1, Q8TBB1, sequence (Q8TBB1 261-371): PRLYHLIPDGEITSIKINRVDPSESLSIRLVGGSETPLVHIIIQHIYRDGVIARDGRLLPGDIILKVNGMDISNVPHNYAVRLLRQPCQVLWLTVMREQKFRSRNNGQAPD
PTPN3, P26045, sequence (P26045 505-587): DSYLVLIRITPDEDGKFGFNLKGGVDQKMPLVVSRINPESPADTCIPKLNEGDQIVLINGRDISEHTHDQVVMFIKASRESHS
HTRA1, Q92743, sequence (Q92743 360-477): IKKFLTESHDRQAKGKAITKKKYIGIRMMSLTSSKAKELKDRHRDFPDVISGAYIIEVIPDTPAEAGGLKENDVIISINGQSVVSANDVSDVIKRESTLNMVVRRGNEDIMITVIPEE

For orientation: pKd means the negative decadic logarithm of the Kd, by convention in mol/L. Take SRSRRRETAL [HPV33-E6, P06427]: the pKd entry in [1] (setting [25]) was “below the threshold”; in experiment [2] (setting [25]), “below the threshold”; in experiment [3] (setting [25]), 3.45; in experiment [4] (setting [25]), 4.5; in experiment [5] (setting [25]), “below the threshold”; in [6] (setting [25]) it was “below the threshold”. The pKd result in experiment [7] (setting [25]) is “below the threshold”; in [8] (setting [25]) it was “below the threshold”; in experiment [9] (setting [25]) it was 3.42; in experiment [10] (setting [25]) it was 3.48; in [11] (setting [25]) it was “below the threshold”; in experiment [12] (setting [25]), 4.14. The pKd entry in [13] (setting [25]), in [14] (setting [25]), in experiment [15] (setting [25]), in experiment [16] (setting [25]), in experiment [17] (setting [25]) and in experiment [18] (setting [25]) was “below the threshold” throughout. In addition, the pKd result was “below the threshold” in experiment [19] (setting [25]); “below the threshold” in experiment [20] (setting [25]); 5.01 in experiment [21] (setting [25]); 3.62 in experiment [22] (setting [25]); 5.3 in experiment [23] (setting [25]); “below the threshold” in experiment [24] (setting [25]).

As to YNSFLSVTTV [PDZRN3, Q9UPQ7], the pKd entry was “below the threshold” in experiment [1] (setting [26]); “below the threshold” in [2] (setting [26]); “below the threshold” in experiment [3] (setting [26]); 3.81 in experiment [4] (setting [26]); “below the threshold” in experiment [5] (setting [26]); “below the threshold” in experiment [6] (setting [26]). For the same molecule, the pKd entry was “below the threshold” in experiment [7] (setting [26]); “below the threshold” in experiment [8] (setting [26]); “below the threshold” in experiment [9] (setting [26]); 4.3 in experiment [10] (setting [26]); “below the threshold” in experiment [11] (setting [26]); 3.47 in experiment [12] (setting [26]). Besides, the pKd in experiment [13] (setting [26]) was 3.8; in experiment [14] (setting [26]), 4.23; in experiment [15] (setting [26]), 4.94; in experiment [16] (setting [26]), “below the threshold”; in experiment [17] (setting [26]), “below the threshold”; in experiment [18] (setting [26]), “below the threshold”. Besides, the pKd result in experiment [19] (setting [26]) is “below the threshold”; in experiment [20] (setting [26]), “below the threshold”; in experiment [21] (setting [26]), 3.48; in experiment [22] (setting [26]) it was 3.79; in experiment [23] (setting [26]), “below the threshold”; in [24] (setting [26]), “below the threshold”.

For the molecule FVETQHQTQV [FAT3, Q8TDW7], the pKd entry in experiment [1] (setting [25]) is “below the threshold”; in experiment [2] (setting [25]) it was “below the threshold”; in experiment [3] (setting [25]), “below the threshold”; in experiment [4] (setting [25]) it was 4.32; in experiment [5] (setting [25]), “below the threshold”; in experiment [6] (setting [25]) it was “below the threshold”. For the same molecule, the pKd was 3.62 in experiment [7] (setting [25]); “below the threshold” in experiment [8] (setting [25]); 3.82 in experiment [9] (setting [25]); “below the threshold” in [10] (setting [25]); “below the threshold” in experiment [11] (setting [25]); “below the threshold” in [12] (setting [25]). Further, the pKd entry in experiment [13] (setting [25]) was “below the threshold”; in experiment [14] (setting [25]) it was “below the threshold”; in [15] (setting [25]), 3.75; in [16] (setting [25]), “below the threshold”; in experiment [17] (setting [25]) it was “below the threshold”; in [18] (setting [25]), “below the threshold”. Also, the pKd entry in experiment [19] (setting [25]) was “below the threshold”; in [20] (setting [25]), “below the threshold”; in experiment [21] (setting [25]), 4.12; in experiment [22] (setting [25]) it was 4.02; in experiment [23] (setting [25]), 4.08; in experiment [24] (setting [25]) it was “below the threshold”.

With PKMKLNETSF [SHKBP1, Q8TBC3], the pKd result in [1] (setting [26]) was “below the threshold”; in experiment [2] (setting [26]), “below the threshold”; in [3] (setting [26]), 3.5; in experiment [4] (setting [26]), “below the threshold”; in experiment [5] (setting [26]), “below the threshold”; in experiment [6] (setting [26]), “below the threshold”. In addition, the negative-log Kd (pKd) entry is “below the threshold” in experiment [7] (setting [26]); “below the threshold” in [8] (setting [26]); “below the threshold” in [9] (setting [26]); “below the threshold” in experiment [10] (setting [26]); “below the threshold” in experiment [11] (setting [26]); 3.49 in experiment [12] (setting [26]). Moreover, the pKd entry in [13] (setting [26]), in [14] (setting [26]), in experiment [15] (setting [26]), in experiment [16] (setting [26]), in experiment [17] (setting [26]) and in experiment [18] (setting [26]) was “below the threshold” throughout. The pKd entry in experiment [19] (setting [26]) was “below the threshold”; in experiment [20] (setting [26]), “below the threshold”; in experiment [21] (setting [26]), 4.68; in experiment [22] (setting [26]), 3.68; in experiment [23] (setting [26]), “below the threshold”; in experiment [24] (setting [26]) it was “below the threshold”.

(Values after paper PMC9482650, “Quantitative fragmentomics allow affinity mapping of interactomes” (Nature Communications, 2022).)
